The source of these data is paper doi:10.1101/2020.03.27.012328 (bioRxiv, 2020).

The assay concerns the target CID1R^ML (maximum likelihood reconstructed ancestral CID from the time of the first whole genome duplication). Put plainly: ITC. On the technique in general: In ITC the heat of successive injections is recorded.

B1: NCBDD/P of the ITC example in Figure S1e (label lost) (domain or fragment)
chain: TPPQALQQLLQTLKSPSSPQQQQQVLQILKSNPQLMAAFIKQRSQHQQ
Usually Kd stands for the constant that tells how readily two partners part at equilibrium. Higher therefore signals a looser complex. B1 had a dissociation constant Kd of 2900 ± 100 nM.
